# Measured values: patent US20250388643A1, “GLUCAGON-LIKE PEPTIDE-2 COMPOSITIONS AND METHODS OF MAKING AND USING SAME” (Amunix Pharmaceuticals, Inc., priority 2011, published 2025)
# Marks after values point to notes of the source that are not given here.
# B1: GLP2-2G-XTEN_AE864: fusion protein of GLP-2 with glycine at position 2 linked at the C-terminus to XTEN AE864; sequence of FIG. 28 (SEQ ID NO: 798) (protein)
# chain: HGDGSFSDEMNTILDNLAARDFINWLIQTKITDGGSPAGSPTSTEEGTSESATPESGPGTSTEPSEGSAPGSPAGSPTSTEEGTSTEPSEGSAPGTSTEPSEGSAPGTSESATPESGPGSEPATSGSETPGSEPATSGSETPGSPAGSPTSTEEGTSESATPESGPGTSTEPSEGSAPGTSTEPSEGSAPGSPAGSPTSTEEGTSTEPSEGSAPGTSTEPSEGSAPGTSESATPESGPGTSTEPSEGSAPGTSESATPESGPGSEPATSGSETPGTSTEPSEGSAPGTSTEPSEGSAPGTSESATPESGPGTSESATPESGPGSPAGSPTSTEEGTSESATPESGPGSEPATSGSETPGTSESATPESGPGTSTEPSEGSAPGTSTEPSEGSAPGTSTEPSEGSAPGTSTEPSEGSAPGTSTEPSEGSAPGTSTEPSEGSAPGSPAGSPTSTEEGTSTEPSEGSAPGTSESATPESGPGSEPATSGSETPGTSESATPESGPGSEPATSGSETPGTSESATPESGPGTSTEPSEGSAPGTSESATPESGPGSPAGSPTSTEEGSPAGSPTSTEEGSPAGSPTSTEEGTSESATPESGPGTSTEPSEGSAPGTSESATPESGPGSEPATSGSETPGTSESATPESGPGSEPATSGSETPGTSESATPESGPGTSTEPSEGSAPGSPAGSPTSTEEGTSESATPESGPGSEPATSGSETPGTSESATPESGPGSPAGSPTSTEEGSPAGSPTSTEEGTSTEPSEGSAPGTSESATPESGPGTSESATPESGPGTSESATPESGPGSEPATSGSETPGSEPATSGSETPGSPAGSPTSTEEGTSTEPSEGSAPGTSTEPSEGSAPGSEPATSGSETPGTSESATPESGPGTSTEPSEGSAPG
# Assays:
# [1] = parameters: species or system human
# Excerpt: The cumulative results of the PK analyses were used to perform allometric scaling of GLP2-2G_AE864 terminal half-life, clearance and volume of distribution using data from three species (mouse, rat and monkey). Pharmacokinetic values for a 70 kg human were predicted by extrapolating the log linear relationship between body weight and each pharmacokinetic parameter, as shown in FIG. 17. […] The terminal half-life in humans can also be estimated using the predicted values for clearance (Cl) and volume of distribution (Vd) as 0.693×Vd/Cl.
# [2] = tested on: small intestine growth in rats; test: Intestinotrophic growth in normal rats (small intestine weight and length); format: in vivo, rat
# Description: To determine the intestinotrophic properties of GLP2-XTEN, small intestine growth in rats was measured as a primary pharmacodynamic endpoint. […] GLP2-2G-XTEN was dosed at 25 nmol/kg once daily for 12 days. After sacrifice, a midline incision was made, the small intestines were removed, stretched to their maximum length and the length recorded. The fecal material was flushed from the lumen and the small intestinal wet weight recorded. The small intestine length and weight data were analyzed with an ANOVA model with a Tukey/Kramer post-hoc test for pairwise comparisons, with significance at p=0.05.
# [3] = tested on: indomethacin-induced intestinal inflammation in Wistar rats; test: Rat Crohn's Disease indomethacin-induced intestinal inflammation model, Study 3; format: in vivo
# Description: Study 3: A third indomethacin-induced inflammation study was performed to verify previous results and test additional dose regimens. Intestinal inflammation was induced in male Wistar rats (Harlan Sprague Dawley) using indomethacin administered on Days 0 and 1 of the experiment according to Table 21.
# All treatments were administered per the schedule starting on Day-3 of the experiment. Body weights were determined daily. On Day 2 (24 hours post-2nd indomethacin dose), the animals were prepped for sacrifice and analysis. The small intestines were removed and the length of each was recorded. Quantitative histopathology was performed on a subset of samples. Rat small intestine samples consisted of a 3 cm section of proximal jejunum and a 3 cm section of mid-jejunum collected 15 cm and 30 cm from the pylorus, respectively. Samples were fixed in 10% neutral buffered formalin. Samples were trimmed into multiple sections without bias toward lesion presence or absence. These sections were placed in cassettes, embedded in paraffin, microtomed at approximately 4 microns thickness, and stained with hematoxylin and eosin (H&E). The slides were evaluated microscopically by a board certified veterinary pathologist and scored for villous height as well as infiltration/inflammation, mucosal atrophy, villi/crypt appearance, abscesses/ulceration. A 1 to 4 severity grading scale was used, where 1=minimal, 2=mild, 3=moderate, 4=marked/severe, reflecting the combination of the cellular reactions seen histopathologically. Small intestine length was analyzed with an ANOVA model with a Tukey/Kramer post-hoc test for pairwise comparisons, with significance at p=0.05. Non-parametric histology score variables were compared with the vehicle control using a Mann Whitney U test with a Bonferroni correction for the p-value to create an overall alpha of 0.05.
# [4] = normal Sprague-Dawley rats, SC 12 days, peptide 12.5 nmol/kg twice daily, fusion protein 25 nmol/kg once daily
molecule,measurement,setting,value
B1,Cl,[1],17* ml/hr
same,T ½,[1],240* hr
same,Vd,[1],91* mL/kg
same,small intestine growth compared with GLP2-2G peptide,[2]; equal nmol/kg dosing,as good or better than GLP2-2G peptide
same,increase in small intestine length,[2]; [4],9%
same,increase in small intestine weight,[2]; [4],31%
same,increase in small intestine length,"[2]; normal rats, 25 nmol/kg once daily for 12 days",10 cm
same,small intestine length,"[3]; compared to vehicle-treated diseased rats, FIG. 24A",increase in small intestine length
same,efficacy by regimen compared with peptide,[3]; dosed once at 75 nmol/kg or three times at 25 nmol/kg,as effective as GLP2-2G peptide dosed ten times at 12.5 nmol/kg
same,villi height,"[3]; fusion protein high (total dose 125 nmol/kg) and low (total dose 75 nmol/kg), FIG. 24B",significant increase in villi height
same,mucosal atrophy score,"[3]; high and low dose, vs vehicle-treated diseased rats, FIG. 24C",significantly lower mucosal atrophy score
same,efficacy in improving indomethacin-induced small intestine damage (histopathology),"[3]; rat, in vivo",as good or better than GLP2-2G peptide
same,mucosal ulceration and mixed cell infiltrate,[3]; three treatment groups,not significant
